The values below come from PMC5791736, “CCPG1 Is a Non-canonical Autophagy Cargo Receptor Essential for ER-Phagy and Pancreatic ER Proteostasis” (Developmental Cell, 2018).

The target in this assay is T1, GST-CCPG1 NTD (bacterial) (1-230) (human, UniProt Q9ULG6 1-230).
T1 construct: CCPG1, human, N-terminal amino acids 1-230 (NTD); source: E. coli Rosetta II (DE3), pre-purified on glutathione Sepharose beads
T1 sequence (looked up): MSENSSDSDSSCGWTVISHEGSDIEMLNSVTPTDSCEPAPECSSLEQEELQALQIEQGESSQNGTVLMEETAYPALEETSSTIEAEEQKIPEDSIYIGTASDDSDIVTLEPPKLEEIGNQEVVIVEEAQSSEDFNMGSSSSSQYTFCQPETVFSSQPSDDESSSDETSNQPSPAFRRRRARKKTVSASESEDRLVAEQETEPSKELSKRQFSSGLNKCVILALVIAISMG
Description: pull-down; GST-CCPG1 NTD pre-purified on glutathione Sepharose beads, incubated with purified recombinant protein (His-GABARAP or His-FIP200) in IGEPAL IP buffer, 4°C; immunoblot. The note with it: both partners purified.

B1: His-GABARAP (natural protein, human, UniProt O95166 1-117, looked up)
chain: MKFVYKEEHPFEKRRSEGEKIRKKYPDRVPVIVEKAPKARIGDLDKKKYLVPSDLTVGQFYFLIRKRIHLRAEDALFFFVNNVIPPTSATMGQLYQEHHEEDFFLYIAYSDESVYGL
notes: GABARAP, human ATG8 ortholog; also called purified, recombinant His-GABARAP; source: recombinant, purified
As for B1, the binding result is given as “binds”.
